Reference: patent publication US9618511B2, “Methods and compositions for treating alzheimer's disease” (Eleanore Bennett Charitable Trust #2, priority 2008, dated 2017)

Legend:
Rictor-stimulated Akt1 = target: T1, Rictor-stimulated Akt1; test: Rictor-dependent Akt1 activity, in vitro kinase assay; type: biochemical, mouse (C2C12 myotubes); conditions: 10 μM
T1 construct: endogenous in cells; host or cells: Rictor from insulin-treated C2C12 myotubes
Description: Another kinase, termed SGK (serum/glucocorticoid regulated kinase), is also activated by PDK. Similar to Akt, SGK has a PH domain and phosphorylates GSK-3 α/β (Kobayashi, T., Deak, M., Morrice, N., and Cohen, P., 1999, Characterization of the structure and regulation of two novel isoforms of serum- and glucocorticoid-induced protein kinase, Biochem J 344 Pt 1:189-197, and Tessier, M., and Woodgett, J. R., 2006, Serum and glucocorticoid-regulated protein kinases: variations on a theme, J Cell Biochem 98:1391-1407). If Aβ inhibits PH-mediated activations of Akt independent of PIP3, it is predicted to affect this mechanism too. Indeed, in FIG. 7D, ADDL-containing Aβ preparations inhibited PDK-stimulated SGK activity (lane 7 vs. 6 and 5). […] This enhanced activity was not however, interrupted by Aβ (10 μM, lane 4 vs. 3). Lastly, another kinase that converges to phosphorylate GSK, PKA (Grimes, C. A., and Jope, R. S., 2001, The multifaceted roles of glycogen synthase kinase 3beta in cellular signaling, Prog Neurobiol 65:391-426; Li, M., Wang, X., Meintzer, M. K., Laessig, T., Birnbaum, M. J., and Heidenreich, K. A., 2000, Cyclic AMP promotes neuronal survival by phosphorylation of glycogen synthase kinase 3beta, Mol Cell Biol 20:9356-9363), was tested. […] Thus, the mechanism of Aβ inhibition of Akt activation is specific to PDK-like kinases. […]

[1] = target: T2, association between PDK1 and Akt1 (Mus musculus, UniProt Q9Z2A0); test: PDK and Akt1 interaction assay (cell extracts, IP/western pull-down); type: binding, mouse (C2C12 myotubes); conditions: for association between Akt and PDK1 (co-immunoprecipitation): 5 μM, mixed cell extracts, 30 min at 30° C.
T2 construct: These were relatively enriched with endogenous PDK; expressed in transfected cells; host or cells: mouse C2C12 myotubes infected with Adv WT-Akt; control C2C12 extracts as source of endogenous PDK1
T2 sequence (Q9Z2A0 1-559): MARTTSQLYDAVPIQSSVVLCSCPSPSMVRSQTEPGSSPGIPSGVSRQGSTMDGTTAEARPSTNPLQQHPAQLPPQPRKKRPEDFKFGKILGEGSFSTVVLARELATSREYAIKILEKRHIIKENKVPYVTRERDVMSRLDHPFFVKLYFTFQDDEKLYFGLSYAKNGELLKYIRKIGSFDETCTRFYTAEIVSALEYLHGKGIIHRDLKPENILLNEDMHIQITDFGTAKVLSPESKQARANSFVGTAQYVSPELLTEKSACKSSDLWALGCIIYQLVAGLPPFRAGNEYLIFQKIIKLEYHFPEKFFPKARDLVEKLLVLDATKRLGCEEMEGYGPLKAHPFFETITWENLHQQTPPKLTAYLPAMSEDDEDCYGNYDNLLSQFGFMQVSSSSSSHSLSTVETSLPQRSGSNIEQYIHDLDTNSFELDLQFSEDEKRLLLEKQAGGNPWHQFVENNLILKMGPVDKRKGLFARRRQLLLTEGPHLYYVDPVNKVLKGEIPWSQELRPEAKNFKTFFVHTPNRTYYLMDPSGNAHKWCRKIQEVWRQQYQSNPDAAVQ
Description: Accordingly, the effect of Aβ on PDK/Akt interactions may be evaluated in any suitable in vitro assay. In some embodiments, PDK1 may be prepared from extracts of mouse C2C12 myotube cultures. To increase the amount of available Akt, this protein may be prepared from C2C12 myotubes that had previously been infected with an adenovirus expressing wild type Akt (Adv-wtAkt). In some embodiments, to measure the interaction between these proteins, the cell extracts above were mixed for 30 minutes at 30° C. either in the presence or absence of added 5 μM Aβ1-42. […] The inability of PDK1 to interact with its target Akt led to a decrease in Akt activation and a loss of the subsequent downstream phosphorylations (e.g., GSK3β peptide as in FIGS. 3A and 3C, not shown).
For cell-based interaction studies, intracellular Aβ42 production was induced by infecting C2C12 myotubes with Adv Aβ/TetOn. These cell extracts (100 μg) were used to IP endogenous Akt, and from this pull-down, determine the levels of associated PDK by western blot. The in vitro interaction study involved first enriching for Akt through viral-mediated expression of WT-Akt. Akt-enriched/PDK-depleted extract was then prepared by removing the PDK, via immunoprecipitation, from the Akt-enriched cell extract. Akt-depleted extracts were prepared from control extracts by pre-immunoprecipitating Akt. These were relatively enriched with endogenous PDK. The enrichments and depletions were confirmed by western blot analysis. The interaction assay contained a mixture of 100 μg Akt-enriched and 100 μg control cell extract in the presence or absence of Aβ42 (up to 10 μM). The mixtures were incubated for 30 minutes at 30° C., followed by overnight incubation at 4° C. with goat anti-Akt1. Protein G beads were added with mixing for 1.5 hr. PDK1 and Akt1 levels were determined by western blot. In control experiments, 100 μg of Akt-enriched, PDK-depleted extract and 100 μg of a control extract depleted for Akt were mixed in the presence or absence of Aβ42 (up to 5 μM) and subjected to the same analyses.

T1 sequence (P31749 whole entry): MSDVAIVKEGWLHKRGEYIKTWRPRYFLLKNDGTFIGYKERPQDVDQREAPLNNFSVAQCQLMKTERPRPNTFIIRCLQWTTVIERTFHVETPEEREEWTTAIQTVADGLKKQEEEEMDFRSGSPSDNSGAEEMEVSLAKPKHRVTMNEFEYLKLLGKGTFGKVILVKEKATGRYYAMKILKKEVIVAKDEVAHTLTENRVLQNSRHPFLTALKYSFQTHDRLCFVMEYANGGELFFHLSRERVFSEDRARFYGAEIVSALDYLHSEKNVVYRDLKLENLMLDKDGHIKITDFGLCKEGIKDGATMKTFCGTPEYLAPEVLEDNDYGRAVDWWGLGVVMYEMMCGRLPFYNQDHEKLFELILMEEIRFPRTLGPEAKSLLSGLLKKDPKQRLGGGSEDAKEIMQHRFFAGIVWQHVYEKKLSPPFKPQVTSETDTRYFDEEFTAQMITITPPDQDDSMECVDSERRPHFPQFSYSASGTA

Substance: Aβ42: synthetic 42 amino acid β-amyloid peptide, forward sequence, freshly prepared, predominantly monomeric (BioSource)
- Rictor-stimulated Akt1 activity (Rictor-stimulated Akt1): no change
- association between Akt and PDK1 (co-immunoprecipitation) [1]: pulled-down less PDK
- association between Akt and PDK1 (co-immunoprecipitation) ([1]; listed as Aβ1-42): dramatic reduction
- pull-down of PDK1 with Akt1 ([1]; 10 μM, Akt-enriched plus control extracts): abrogated
